From patent publication US5726147A, “Human mutant tissue factor compositions useful as tissue factor antagonists” (priority 1995, dated 1998)

B1: Ser-16: full-length human tissue factor mutant, Ser-16 replaced by alanine (protein, UniProt P13726 1-295, looked up, variant S16A)
chain: METPAWPRVPRPETAVARTLLLGWVFAQVAGASGTTNTVAAYNLTWKATNFKTILEWEPKPVNQVYTVQISTKSGDWKSKCFYTTDTECDLTDEIVKDVKQTYLARVFSYPAGNVESTGSAGEPLYENSPEFTPYLETNLGQPTIQSFEQVGTKVNVTVEDERTLVRRNNTFLSLRDVFGKDLIYTLYYWKSSSSGKKTAKTNTNEFLIDVDKGENYCFSVQAVIPSRTVNRKSTDSPVECMGQEKGEFREIFYIIGAVVFVVIILVIILAISLHKCRKAGVGQSWKENSPLNVS
modifications: full-length
notes: full-length human tissue factor mutant, Ser-16 replaced by alanine
B2: Thr-17: full-length human tissue factor mutant, Thr-17 replaced by alanine (protein, UniProt P13726 1-295, looked up, variant T17A)
chain: METPAWPRVPRPETAVARTLLLGWVFAQVAGASGTTNTVAAYNLTWKSANFKTILEWEPKPVNQVYTVQISTKSGDWKSKCFYTTDTECDLTDEIVKDVKQTYLARVFSYPAGNVESTGSAGEPLYENSPEFTPYLETNLGQPTIQSFEQVGTKVNVTVEDERTLVRRNNTFLSLRDVFGKDLIYTLYYWKSSSSGKKTAKTNTNEFLIDVDKGENYCFSVQAVIPSRTVNRKSTDSPVECMGQEKGEFREIFYIIGAVVFVVIILVIILAISLHKCRKAGVGQSWKENSPLNVS
modifications: full-length
notes: full-length human tissue factor mutant, Thr-17 replaced by alanine
B3: Phe-19: full-length human tissue factor mutant, Phe-19 replaced by alanine (protein, UniProt P13726 1-295, looked up, variant F19A)
chain: METPAWPRVPRPETAVARTLLLGWVFAQVAGASGTTNTVAAYNLTWKSTNAKTILEWEPKPVNQVYTVQISTKSGDWKSKCFYTTDTECDLTDEIVKDVKQTYLARVFSYPAGNVESTGSAGEPLYENSPEFTPYLETNLGQPTIQSFEQVGTKVNVTVEDERTLVRRNNTFLSLRDVFGKDLIYTLYYWKSSSSGKKTAKTNTNEFLIDVDKGENYCFSVQAVIPSRTVNRKSTDSPVECMGQEKGEFREIFYIIGAVVFVVIILVIILAISLHKCRKAGVGQSWKENSPLNVS
modifications: full-length
notes: full-length human tissue factor mutant, Phe-19 replaced by alanine
B4: S39-T40-S42: human tissue factor triple mutant with alanine at positions 39, 40 and 42 (protein, UniProt P13726 33-295, looked up, variant S39A T40A S42A)
Tissue factor: SGTTNTVAAYNLTWKSTNFKTILEWEPKPVNQVYTVQIAAKAGDWKSKCFYTTDTECDLTDEIVKDVKQTYLARVFSYPAGNVESTGSAGEPLYENSPEFTPYLETNLGQPTIQSFEQVGTKVNVTVEDERTLVRRNNTFLSLRDVFGKDLIYTLYYWKSSSSGKKTAKTNTNEFLIDVDKGENYCFSVQAVIPSRTVNRKSTDSPVECMGQEKGEFREIFYIIGAVVFVVIILVIILAISLHKCRKAGVGQSWKENSPLNVS
B5: Asp-145: human tissue factor mutant, Asp-145 exchanged for alanine (protein, UniProt P13726 33-295, looked up, variant D145A)
Tissue factor: SGTTNTVAAYNLTWKSTNFKTILEWEPKPVNQVYTVQISTKSGDWKSKCFYTTDTECDLTDEIVKDVKQTYLARVFSYPAGNVESTGSAGEPLYENSPEFTPYLETNLGQPTIQSFEQVGTKVNVTVEDERTLVRRNNTFLSLRAVFGKDLIYTLYYWKSSSSGKKTAKTNTNEFLIDVDKGENYCFSVQAVIPSRTVNRKSTDSPVECMGQEKGEFREIFYIIGAVVFVVIILVIILAISLHKCRKAGVGQSWKENSPLNVS
B6: Val-146: human tissue factor mutant, Val-146 exchanged for alanine (protein, UniProt P13726 33-295, looked up, variant V146A)
Tissue factor: SGTTNTVAAYNLTWKSTNFKTILEWEPKPVNQVYTVQISTKSGDWKSKCFYTTDTECDLTDEIVKDVKQTYLARVFSYPAGNVESTGSAGEPLYENSPEFTPYLETNLGQPTIQSFEQVGTKVNVTVEDERTLVRRNNTFLSLRDAFGKDLIYTLYYWKSSSSGKKTAKTNTNEFLIDVDKGENYCFSVQAVIPSRTVNRKSTDSPVECMGQEKGEFREIFYIIGAVVFVVIILVIILAISLHKCRKAGVGQSWKENSPLNVS
B7: Phe-147: human tissue factor mutant, Phe-147 exchanged for alanine (protein, UniProt P13726 33-295, looked up, variant F147A)
Tissue factor: SGTTNTVAAYNLTWKSTNFKTILEWEPKPVNQVYTVQISTKSGDWKSKCFYTTDTECDLTDEIVKDVKQTYLARVFSYPAGNVESTGSAGEPLYENSPEFTPYLETNLGQPTIQSFEQVGTKVNVTVEDERTLVRRNNTFLSLRDVAGKDLIYTLYYWKSSSSGKKTAKTNTNEFLIDVDKGENYCFSVQAVIPSRTVNRKSTDSPVECMGQEKGEFREIFYIIGAVVFVVIILVIILAISLHKCRKAGVGQSWKENSPLNVS
B8: Val-198: human tissue factor mutant, Val-198 replaced by alanine (protein, UniProt P13726 33-295, looked up, variant V198A)
Tissue factor: SGTTNTVAAYNLTWKSTNFKTILEWEPKPVNQVYTVQISTKSGDWKSKCFYTTDTECDLTDEIVKDVKQTYLARVFSYPAGNVESTGSAGEPLYENSPEFTPYLETNLGQPTIQSFEQVGTKVNVTVEDERTLVRRNNTFLSLRDVFGKDLIYTLYYWKSSSSGKKTAKTNTNEFLIDVDKGENYCFSVQAVIPSRTANRKSTDSPVECMGQEKGEFREIFYIIGAVVFVVIILVIILAISLHKCRKAGVGQSWKENSPLNVS
B9: Asn-199: human tissue factor mutant, Asn-199 replaced by alanine (protein, UniProt P13726 33-295, looked up, variant N199A)
Tissue factor: SGTTNTVAAYNLTWKSTNFKTILEWEPKPVNQVYTVQISTKSGDWKSKCFYTTDTECDLTDEIVKDVKQTYLARVFSYPAGNVESTGSAGEPLYENSPEFTPYLETNLGQPTIQSFEQVGTKVNVTVEDERTLVRRNNTFLSLRDVFGKDLIYTLYYWKSSSSGKKTAKTNTNEFLIDVDKGENYCFSVQAVIPSRTVARKSTDSPVECMGQEKGEFREIFYIIGAVVFVVIILVIILAISLHKCRKAGVGQSWKENSPLNVS
B10: Arg-200/Lys-201: human tissue factor mutant, Arg-200 and Lys-201 replaced by alanine (protein, UniProt P13726 33-295, looked up, variant R200A K201A)
Tissue factor: SGTTNTVAAYNLTWKSTNFKTILEWEPKPVNQVYTVQISTKSGDWKSKCFYTTDTECDLTDEIVKDVKQTYLARVFSYPAGNVESTGSAGEPLYENSPEFTPYLETNLGQPTIQSFEQVGTKVNVTVEDERTLVRRNNTFLSLRDVFGKDLIYTLYYWKSSSSGKKTAKTNTNEFLIDVDKGENYCFSVQAVIPSRTVNAASTDSPVECMGQEKGEFREIFYIIGAVVFVVIILVIILAISLHKCRKAGVGQSWKENSPLNVS
B11: Val-67: human tissue factor mutant, Val-67 replaced by alanine (protein, UniProt P13726 33-295, looked up, variant V67A)
Tissue factor: SGTTNTVAAYNLTWKSTNFKTILEWEPKPVNQVYTVQISTKSGDWKSKCFYTTDTECDLTDEIVKDAKQTYLARVFSYPAGNVESTGSAGEPLYENSPEFTPYLETNLGQPTIQSFEQVGTKVNVTVEDERTLVRRNNTFLSLRDVFGKDLIYTLYYWKSSSSGKKTAKTNTNEFLIDVDKGENYCFSVQAVIPSRTVNRKSTDSPVECMGQEKGEFREIFYIIGAVVFVVIILVIILAISLHKCRKAGVGQSWKENSPLNVS
B12: Tyr-71: human tissue factor mutant, Tyr-71 replaced by alanine (protein, UniProt P13726 33-295, looked up, variant Y71A)
Tissue factor: SGTTNTVAAYNLTWKSTNFKTILEWEPKPVNQVYTVQISTKSGDWKSKCFYTTDTECDLTDEIVKDVKQTALARVFSYPAGNVESTGSAGEPLYENSPEFTPYLETNLGQPTIQSFEQVGTKVNVTVEDERTLVRRNNTFLSLRDVFGKDLIYTLYYWKSSSSGKKTAKTNTNEFLIDVDKGENYCFSVQAVIPSRTVNRKSTDSPVECMGQEKGEFREIFYIIGAVVFVVIILVIILAISLHKCRKAGVGQSWKENSPLNVS
B13: Glu-105: human tissue factor mutant, Ala replacement for Glu-105 (protein, UniProt P13726 33-295, looked up, variant E105A)
Tissue factor: SGTTNTVAAYNLTWKSTNFKTILEWEPKPVNQVYTVQISTKSGDWKSKCFYTTDTECDLTDEIVKDVKQTYLARVFSYPAGNVESTGSAGEPLYENSPEFTPYLATNLGQPTIQSFEQVGTKVNVTVEDERTLVRRNNTFLSLRDVFGKDLIYTLYYWKSSSSGKKTAKTNTNEFLIDVDKGENYCFSVQAVIPSRTVNRKSTDSPVECMGQEKGEFREIFYIIGAVVFVVIILVIILAISLHKCRKAGVGQSWKENSPLNVS
B14: Thr-106: human tissue factor mutant, Ala replacement for Thr-106 (protein, UniProt P13726 33-295, looked up, variant T106A)
Tissue factor: SGTTNTVAAYNLTWKSTNFKTILEWEPKPVNQVYTVQISTKSGDWKSKCFYTTDTECDLTDEIVKDVKQTYLARVFSYPAGNVESTGSAGEPLYENSPEFTPYLEANLGQPTIQSFEQVGTKVNVTVEDERTLVRRNNTFLSLRDVFGKDLIYTLYYWKSSSSGKKTAKTNTNEFLIDVDKGENYCFSVQAVIPSRTVNRKSTDSPVECMGQEKGEFREIFYIIGAVVFVVIILVIILAISLHKCRKAGVGQSWKENSPLNVS

Tested on: coagulation in recalcified plasma
Assay: One stage clotting (coagulation) assay of specific functional activity of full-length TF mutants in CHO cell lysates
Format: biochemical
Settings: for loss of function (reduction in specific functional activity as % of wild-type activity): full-length Ala mutant expressed in CHO cells, cell lysate, coagulant activity normalized to antigen, relative to wild-type TF; for reduction in tissue factor procoagulant cofactor activity when compared to wt-TF: residue substituted at the named position
Description: The full-length TF mutants prepared above were analyzed for function by coagulation assay. […] Coagulation factor deficient plasmas were purchased from George King Bio-medical. The chromogenic substrate, Spectrozyme FXa, was from American Diagnostica Inc. (Greenwich, Conn.).
An alternative approach was to use a polyvalent antibody purified by affinity for capturing TF followed by detection with the TF8-5G9 monoclonal antibody described above.
Initiation of coagulation by wild-type and mutant TF in recalcified plasma was determined after lysis of cell pellets from 2×10^6 cells/ml for each expressed full-length mutant with 15 mM octyl-glucopyranoside in HBS for 15 minutes at 37 C. followed by a 3-fold dilution.
All data represented are based on at least three independent determinations performed in duplicate.

Row | Molecule | loss of function (reduction in specific functional activity as % of wild-type activity) | reduction in tissue factor procoagulant cofactor activity when compared to wt-TF [%]
1 | B1 | more than 70% | ≥ 75
2 | B2 | more than 70% | ≥ 75
3 | B3 | more than 70% | –
4 | B4 | 43% | –
5 | B5 | 30-50% | –
6 | B6 | 30-50% | –
7 | B7 | 30-50% | –
8 | B8 | 30-80% | –
9 | B9 | 30-80% | ≥ 75
10 | B10 | 30-80% | –
11 | B11 | 53% | –
12 | B12 | 98% | –
13 | B13 | more than 50% | –
14 | B14 | more than 50% | –
